We go through 2 substances from PMC11081498.

The target in assay [1] is Giardia lamblia virus strain GLV-CAT capsid protein (Giardia lamblia virus (strain GLV-CAT)). As to the kind of experiment: cryo-EM structure; single-particle analysis of purified virions plunge-frozen on holey carbon grids; 300-kV Titan Krios; icosahedral symmetry imposed; atomic models of CP-A and CP-B built into the maps.
Assay [2] deals with Giardia lamblia virus strain GLV-HP capsid protein (Giardia lamblia virus (strain GLV-HP)). The description is as above.

“Giardia lamblia virus strain GLV-CAT capsid protein (natural protein)” yielded a stoichiometry N (CP dimers (CP-A and CP-B) in the capsid) in assay [1] of 60.
The substance “Giardia lamblia virus strain GLV-HP capsid protein (natural protein)” showed a stoichiometry N (CP dimers (CP-A and CP-B) in the capsid) in assay [2] of 60.
